Reference: patent publication US20220273710A1 (AUTOLUS, published 2022)
Substitutions are numbered along the chain they refer to. One block for each binder: values may come before it.

Molecular target: T1, Recombinant purified CD79b (R&D systems) (human, UniProt P40259 29-159)
T1 construct: Bought protein
T1 sequence: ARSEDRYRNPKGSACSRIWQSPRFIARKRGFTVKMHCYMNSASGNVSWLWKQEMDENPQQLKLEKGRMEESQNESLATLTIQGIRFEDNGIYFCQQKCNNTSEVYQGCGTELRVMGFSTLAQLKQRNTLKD
Experiment: SPR, Biacore 8K, antibody immobilised on CM5 chip, CD79b as analyte, 25° C, 1:1 Langmuir fit
From the text: Recombinant anti-CD79b antibodies Polatuzumab and newly generated antibodies 2E8, 3H2, and 7G4 were immobilised on individual flow cells on a Series S CM5 sensor chip (GE Healthcare) to a density of 150-280 RU using a Biacore 8K instrument. HBS-P+buffer was used as running buffer under all experimental conditions. Recombinant purified CD79b (R&D systems) at known concentrations was used as the ‘analyte’ and injected over the respective flow cells with 150s contact time and 300s dissociation, at 30 μl/minute of flow rate and a constant temperature of 25° C. In each experiment, flow cell 1 was unmodified and used for reference subtraction. A ‘0 concentration’ sensorgram of buffer alone was used as a double reference subtraction to factor for drift. Data were fit to a 1:1 Langmuir binding model.

Kd: 6.88 nM
koff: 0.00806 s⁻¹
kon: 1.17e+06 M⁻¹ s⁻¹
B1: Polatuzumab (antibody, V domains shown)
VH: EVQLVESGGGLVQPGGSLRLSCAASGYTFSSYWIEWVRQAPGKGLEWIGEILPGGGDTNYNEIFKGRATFSADTSKNTAYLQMNSLRAEDTAVYYCTRRVPIRLDYWGQGTLVTVSS
VL: DIQLTQSPSSLSASVGDRVTITCKASQSVDYEGDSFLNWYQQKPGKAPKLLIYAASNLESGVPSRFSGSGSGTDFTLTISSLQPEDFATYYCQQSNEDPLTFGQGTKVEIKR
notes: polatuzumab'; also called humanised anti-CD79b 2F2; anti-CD79b antibody polatuzumab

Kd: 3.1 nM
B4: 7G4 (antibody, mouse IgG2a, V domains shown)
VH: AVQLVESGGGLVQPKESLKISCAASGFTFSNAAMYWVRQAPGKGLEWVARIRTKPNNYATNYADSVKGRFTISRDDSKSMVYLQMDNLKTEDTAMYYCTYYDGSSYAMDAWGQGTSVTVSS
VL: DVVLTQTPVSLSVTLGDQASISCRSSQSLEYSDGYTYLDWYLQKPGQSPQLLIYEISNRFSGVPDRFIGSGSGTDFTLKISRVEPEDLGVYYCFQATHDPYTFGAGTKLEIK
notes: also called 7G4 antibody; clone 7G4

Further lines, the binder ahead of its results:

B2: 3H2 (antibody, mouse IgG2a, V domains shown)
VH: AVQLVESGGGLVQPKESLKLSCAASGFTFSHTAMYWVRQAPGKGLECVARIRIQPKNYATYYADSVKGRFTISRDDSKSMVYLQMDNLKTEDTAMYYCTAAGFGFDYWGQGVMVTVSS
VL: B4 VL with Y35N, D39E, I56V, N58K, V90I, F94L, Y101F, A105S
notes: also called 3H2 antibody; clone 3H2
Kd: 2.62 nM
koff: 0.00431 s⁻¹
kon: 1.64e+06 M⁻¹ s⁻¹

B3: 2E8 (antibody, mouse IgG2a, V domains shown)
VH: B4 VH
VL: B4 VL with I56V
notes: also called 2E8 antibody; clone 2E8
Kd: 7.11 nM
koff: 0.0805 s⁻¹
kon: 1.13e+07 M⁻¹ s⁻¹
